Values joined by “and” are separate entries in the source; they are usually repeats but may differ in a detail not shown here. Equal entries are not always repeated. Ends that are not written are not given here. 5(6)‑carboxyfluorescein = 5(6)-carboxyfluorescein on the N-terminus
T1: recombinant calprotectin B-RCAL lacking the His6-tag and with the heterodimer linker cleaved by 3C protease, … (human, cysteines replaced by serines | cysteines replaced by serines)
T1 construct: rest of the first HRV 3C site after cleavage (LEVLFQ/GP), worked out from the indicated cleavage site; S100A9, human; rest of the second HRV 3C site left on S100A9 after cleavage, worked out from the indicated cleavage site; rest of the second HRV 3C site after cleavage, worked out from the indicated cleavage site; S100A8, human; One heterodimer and one peptide in the asymmetric unit; the …
T1 chain 1: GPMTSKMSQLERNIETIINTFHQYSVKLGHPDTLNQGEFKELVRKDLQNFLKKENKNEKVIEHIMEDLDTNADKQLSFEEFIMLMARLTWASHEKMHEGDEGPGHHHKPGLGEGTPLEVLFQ
T1 chain 2: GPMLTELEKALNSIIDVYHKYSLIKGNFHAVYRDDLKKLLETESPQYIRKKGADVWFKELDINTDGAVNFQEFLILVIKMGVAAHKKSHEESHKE

T2: native calprotectin derived from granulocytes (human, UniProt P05109 1-93; P06702 1-114)
T2 construct: S100A8 (Mrp-8), human, native; S100A9 (Mrp-14), human, native; Tetramer with calcium, dimer with 1 mM EDTA; also called S100A8/S100A9; Mrp-8/Mrp-14; source: also native in human serum samples; copies: 2 + 2
T2 sequence (looked up) 1: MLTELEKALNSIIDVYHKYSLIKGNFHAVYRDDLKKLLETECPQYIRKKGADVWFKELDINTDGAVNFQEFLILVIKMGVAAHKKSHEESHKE
T2 sequence (looked up) 2: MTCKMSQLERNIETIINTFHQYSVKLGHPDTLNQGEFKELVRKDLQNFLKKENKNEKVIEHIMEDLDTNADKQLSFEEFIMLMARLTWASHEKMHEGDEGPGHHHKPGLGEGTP

B1: B-RCAL (BÜHLMANN recombinant calprotectin; His6-linker-S100A9-linker-S100A8) (complex, human)
chain: MTCKMSQLERNIETIINTFHQYSVKLGHPDTLNQGEFKELVRKDLQNFLKKENKNEKVIEHIMEDLDTNADKQLSFEEFIMLMARLTWASHEKMHEGDEGPGHHHKPGLGEGTPLEVLFQGPMLTELEKALNSIIDVYHKYSLIKGNFHAVYRDDLKKLLETECPQYIRKKGADVWFKELDINTDGAVNFQEFLILVIKMGVAAHKKSHEESHKE
notes: S100A9 (Mrp-14), human; cleavable linker, HRV 3C protease recognition site (LEVLFQ/GP); not cleaved in this molecule; S100A8 (Mrp-8), human; With calcium two fusion chains form the calprotectin tetramer; without calcium (EDTA) a single fusion chain is the 'dimer' (S100A8/S100A9); also called heterodimeric fusion protein; source: provided by BÜHLMANN Laboratories AG
B2: linear peptide 3 (peptide)
peptide: {5(6)‑carboxyfluorescein}-RSPESVAFPMFQSHWYSG
notes: phage-selected peptide 3 with its four cysteines replaced by serines; Synthesised on rink amide AM resin, so a C-terminal amide is likely (surmised); also called peptide 3 (linear; all four cysteines replaced with serines); source: synthetic peptide (Fmoc solid-phase synthesis, HPLC purified)

Columns and labels:
[1] = molecular target: the molecule itself; assay: dynamic light scattering + other: mass photometry; B-RCAL in 20 mM HEPES, 100 mM NaCl, pH 7.5 with 2 mM CaCl2, 1 h at room temperature; tetramer = two B-RCAL fusion chains
[2] = molecular target: T1, recombinant calprotectin B-RCAL lacking …; assay: crystal structure; co-crystallisation of cleaved cysteine-free calprotectin (440 μM) with 14-fold excess of linear peptide 3 and 1 mM CaCl2; sitting drop, 18 °C; 0.1 M MIB pH 6.0, 25% PEG 1500; details: both partners purified
[3] = molecular target: B1; assay: fluorescence polarisation; calprotectin serially diluted, fluorescent peptide at 20 nM; 20 mM HEPES, 100 mM NaCl, 2 mM CaCl2, pH 7.5, 1 mM DTT, 0.01% Tween-20; tetrameric calprotectin; Kd calculated on the concentration of the heterodimer (1:1 heterodimer:peptide); details: both partners purified
[4] = molecular target: T2, native calprotectin derived from …; assay: as above; details: both partners purified

Binder | binding result [1] | binding result [2] | Kd [3] | Kd [4] [nM]
B1 | binds |  |  | 
B2 |  | binds | 26 nM and 20 nM | 26

From paper PMC10192418, “High-affinity peptides developed against calprotectin and their application as synthetic ligands in diagnostic assays” (Nature Communications, 2023)
